According to patent publication US20160222100A1:

Assays:
[1] = biological target: secreted neuroligin-3 in conditioned medium of optogenetically stimulated Thy1::ChR2 mouse cortical slices (mouse); experiment: cell-based or functional assay
[2] = biological target: recombinant full-length neuroligin-3 (Origene) (mouse) (UniProt Q8BYM5); experiment: cell-based or functional assay
Sequence of UniProt Q8BYM5 (Q8BYM5 35-825 limits assumed): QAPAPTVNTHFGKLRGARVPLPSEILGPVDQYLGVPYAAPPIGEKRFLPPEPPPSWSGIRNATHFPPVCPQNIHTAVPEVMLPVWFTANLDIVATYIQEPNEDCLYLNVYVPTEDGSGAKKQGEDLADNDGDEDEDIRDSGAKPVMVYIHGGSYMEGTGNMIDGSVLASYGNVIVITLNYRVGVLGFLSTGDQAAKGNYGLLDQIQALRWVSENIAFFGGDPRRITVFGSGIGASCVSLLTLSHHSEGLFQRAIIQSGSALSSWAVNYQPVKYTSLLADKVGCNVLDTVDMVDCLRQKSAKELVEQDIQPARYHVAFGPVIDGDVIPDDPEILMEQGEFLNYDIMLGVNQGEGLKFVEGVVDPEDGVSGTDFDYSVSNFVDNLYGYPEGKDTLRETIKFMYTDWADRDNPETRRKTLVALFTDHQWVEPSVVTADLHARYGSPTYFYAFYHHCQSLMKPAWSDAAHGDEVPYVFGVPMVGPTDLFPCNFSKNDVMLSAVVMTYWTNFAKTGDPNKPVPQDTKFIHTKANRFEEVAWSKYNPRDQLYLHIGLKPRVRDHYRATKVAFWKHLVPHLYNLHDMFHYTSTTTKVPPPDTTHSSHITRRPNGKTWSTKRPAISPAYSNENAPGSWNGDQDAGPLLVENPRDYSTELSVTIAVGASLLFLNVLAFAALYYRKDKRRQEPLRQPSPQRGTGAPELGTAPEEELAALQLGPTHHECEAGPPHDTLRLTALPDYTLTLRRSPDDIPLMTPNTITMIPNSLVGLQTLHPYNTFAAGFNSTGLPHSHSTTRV

proliferation index of pHGG (SU-pcGBM2) cells, EdU assay, 24 h [1]: 0.34 | proliferation index of pHGG (SU-pcGBM2) cells, EdU assay, 24 h [2]: 0.28
Substance: neurexin-1β (recombinant, R&D Systems) (ligand)
